Results from FireProtDB (doi:10.1021/bi00010a002).

Details: Saccharomyces cerevisiae (strain ATCC 204508 / S288c), pH 2.1, Thermal, CD, Na2SO4-H2SO4 0.33 M
[1] = reversible: yes (>80%), structure 1YCC
[2] = reversible: yes (>70%), structure 1YCC

Chain of Cytochrome c isoform 1 A13L, P00044 (P00044 whole entry A13L, canonical isoform): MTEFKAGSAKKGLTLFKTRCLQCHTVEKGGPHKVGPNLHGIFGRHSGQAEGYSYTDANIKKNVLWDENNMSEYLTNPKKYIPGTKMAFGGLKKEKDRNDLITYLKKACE
Chain of Cytochrome c isoform 1 L100I, P00044 (P00044 whole entry L100I, canonical isoform): as the sequence (P00044 whole entry A13L, canonical isoform) above, with L13A, L100I counted along it
Chain of Cytochrome c isoform 1 F16Y, P00044 (P00044 whole entry F16Y, canonical isoform): as the sequence (P00044 whole entry A13L, canonical isoform) above, with L13A, F16Y counted along it
Chain of Cytochrome c isoform 1 A13Y, P00044 (P00044 whole entry A13Y, canonical isoform): as the sequence (P00044 whole entry A13L, canonical isoform) above, with L13Y counted along it
Chain of Cytochrome c isoform 1 Y103F, P00044 (P00044 whole entry Y103F, canonical isoform): as the sequence (P00044 whole entry A13L, canonical isoform) above, with L13A, Y103F counted along it
Chain of Cytochrome c isoform 1 F16W, P00044 (P00044 whole entry F16W, canonical isoform): as the sequence (P00044 whole entry A13L, canonical isoform) above, with L13A, F16W counted along it
Chain of Cytochrome c isoform 1 wild type, P00044 (P00044 whole entry, canonical isoform): as the sequence (P00044 whole entry A13L, canonical isoform) above, with L13A counted along it

Row | Substance | Tm [1] [°C] | change of melting temperature, mutant - wild type (higher = more stable) [1] [°C] | unfolding enthalpy (van 't Hoff) [1] [kcal/mol] | Tm (reversible: yes (>90%)) [°C] | unfolding enthalpy (van 't Hoff) (reversible: yes (>90%)) [kcal/mol] | Tm [2] [°C] | change of melting temperature, mutant - wild type (higher = more stable) [2] [°C] | unfolding enthalpy (van 't Hoff) [2] [kcal/mol]
1 | Cytochrome c isoform 1 A13L, P00044 | 33.7 | -1.7 | 37.9 | – | – | – | – | –
2 | Cytochrome c isoform 1 wild type, P00044 | – | – | – | 35.4 | 38.1 | – | – | –
3 | Cytochrome c isoform 1 L100I, P00044 | 33.7 | -1.7 | 35.8 | – | – | – | – | –
4 | Cytochrome c isoform 1 F16Y, P00044 | – | – | – | – | – | 28.4 | -7 | 40.6
5 | Cytochrome c isoform 1 F16W, P00044 | 23.1 | -12.3 | 28.9 | – | – | – | – | –
6 | Cytochrome c isoform 1 A13Y, P00044 | 36 | 0.6 | 41.5 | – | – | – | – | –
7 | Cytochrome c isoform 1 Y103F, P00044 | 33.3 | -2.1 | 33 | – | – | – | – | –
